# Results reported in IntAct's records for PubMed 11001931.
# Molecular target: fhl2_human FHL2 (UniProt Q14192)
# Sequence (Q14192 whole entry): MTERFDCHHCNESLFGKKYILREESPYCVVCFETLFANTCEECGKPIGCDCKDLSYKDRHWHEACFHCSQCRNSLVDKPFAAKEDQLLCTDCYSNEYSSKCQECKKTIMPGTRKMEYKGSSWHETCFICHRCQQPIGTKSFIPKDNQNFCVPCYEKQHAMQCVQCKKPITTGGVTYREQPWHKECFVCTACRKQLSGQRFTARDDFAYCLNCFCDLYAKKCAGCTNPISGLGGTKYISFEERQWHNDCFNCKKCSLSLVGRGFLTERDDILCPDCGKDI
# Sequence of Presenilin-2 (Homo sapiens), P49810 V278A (P49810 whole entry V278A): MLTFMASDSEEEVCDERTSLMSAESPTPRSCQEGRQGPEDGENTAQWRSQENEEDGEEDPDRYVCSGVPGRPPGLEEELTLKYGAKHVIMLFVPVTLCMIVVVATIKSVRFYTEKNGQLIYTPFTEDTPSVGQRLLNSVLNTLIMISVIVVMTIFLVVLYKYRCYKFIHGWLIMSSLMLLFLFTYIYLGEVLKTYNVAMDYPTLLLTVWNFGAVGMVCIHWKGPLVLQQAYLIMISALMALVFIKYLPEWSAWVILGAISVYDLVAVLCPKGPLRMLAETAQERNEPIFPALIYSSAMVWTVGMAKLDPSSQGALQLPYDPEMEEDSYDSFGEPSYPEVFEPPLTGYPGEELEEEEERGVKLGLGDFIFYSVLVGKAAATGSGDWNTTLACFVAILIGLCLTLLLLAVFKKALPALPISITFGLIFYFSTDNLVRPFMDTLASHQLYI
# Sequence of Presenilin-2 (Homo sapiens), P49810 P273A (P49810 whole entry P273A): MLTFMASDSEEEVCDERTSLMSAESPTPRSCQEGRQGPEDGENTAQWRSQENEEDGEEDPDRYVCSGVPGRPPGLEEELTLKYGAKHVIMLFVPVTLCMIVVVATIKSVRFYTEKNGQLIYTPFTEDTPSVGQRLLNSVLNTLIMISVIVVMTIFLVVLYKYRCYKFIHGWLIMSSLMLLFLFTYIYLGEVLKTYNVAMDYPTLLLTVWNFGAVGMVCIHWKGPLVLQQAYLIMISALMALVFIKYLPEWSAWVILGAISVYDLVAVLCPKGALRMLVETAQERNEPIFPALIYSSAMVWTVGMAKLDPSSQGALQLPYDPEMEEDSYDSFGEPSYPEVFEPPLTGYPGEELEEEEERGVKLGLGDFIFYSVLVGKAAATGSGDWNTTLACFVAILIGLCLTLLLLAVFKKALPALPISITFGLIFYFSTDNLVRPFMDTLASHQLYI
# Sequence of Presenilin-2 (Homo sapiens), P49810 K271A (P49810 whole entry K271A): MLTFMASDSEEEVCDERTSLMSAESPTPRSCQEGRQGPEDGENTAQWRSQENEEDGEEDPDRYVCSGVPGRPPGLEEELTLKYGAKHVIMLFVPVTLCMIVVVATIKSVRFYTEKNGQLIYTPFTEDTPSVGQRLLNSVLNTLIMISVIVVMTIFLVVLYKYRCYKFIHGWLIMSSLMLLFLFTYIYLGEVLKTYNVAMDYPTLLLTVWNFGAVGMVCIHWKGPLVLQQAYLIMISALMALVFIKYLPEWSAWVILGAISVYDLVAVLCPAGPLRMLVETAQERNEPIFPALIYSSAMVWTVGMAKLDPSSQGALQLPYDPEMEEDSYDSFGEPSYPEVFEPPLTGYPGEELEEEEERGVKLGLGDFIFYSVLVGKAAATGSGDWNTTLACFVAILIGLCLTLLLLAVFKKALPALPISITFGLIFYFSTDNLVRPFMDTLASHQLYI
# Sequence of Presenilin-2 (Homo sapiens), P49810 G272A (P49810 whole entry G272A): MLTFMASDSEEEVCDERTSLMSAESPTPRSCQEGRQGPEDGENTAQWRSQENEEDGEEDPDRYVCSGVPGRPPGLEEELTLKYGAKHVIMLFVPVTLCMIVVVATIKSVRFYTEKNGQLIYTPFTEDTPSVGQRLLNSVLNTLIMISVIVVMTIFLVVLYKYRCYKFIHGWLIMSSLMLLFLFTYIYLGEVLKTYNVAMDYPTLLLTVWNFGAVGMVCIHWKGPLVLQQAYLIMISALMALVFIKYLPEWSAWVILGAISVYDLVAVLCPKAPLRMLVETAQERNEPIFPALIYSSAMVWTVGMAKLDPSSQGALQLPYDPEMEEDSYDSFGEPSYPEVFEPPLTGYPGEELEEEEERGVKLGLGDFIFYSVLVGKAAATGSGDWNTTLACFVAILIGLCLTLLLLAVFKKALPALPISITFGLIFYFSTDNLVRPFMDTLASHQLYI
# Sequence of Presenilin-2 (Homo sapiens), P49810 E279A (P49810 whole entry E279A): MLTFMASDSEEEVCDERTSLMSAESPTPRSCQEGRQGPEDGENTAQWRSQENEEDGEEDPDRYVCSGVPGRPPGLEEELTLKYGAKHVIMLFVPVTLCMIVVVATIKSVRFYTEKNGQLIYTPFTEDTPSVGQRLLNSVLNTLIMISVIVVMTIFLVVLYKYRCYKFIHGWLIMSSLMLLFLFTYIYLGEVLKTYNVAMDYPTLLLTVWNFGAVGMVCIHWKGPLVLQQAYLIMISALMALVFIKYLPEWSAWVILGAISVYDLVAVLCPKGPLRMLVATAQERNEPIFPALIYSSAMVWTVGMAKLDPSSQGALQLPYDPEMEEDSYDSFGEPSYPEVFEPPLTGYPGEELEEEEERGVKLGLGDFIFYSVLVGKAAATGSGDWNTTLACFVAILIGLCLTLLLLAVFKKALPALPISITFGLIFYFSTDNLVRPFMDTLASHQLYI
# Sequence of Presenilin-2 (Homo sapiens), P49810 L274A (P49810 whole entry L274A): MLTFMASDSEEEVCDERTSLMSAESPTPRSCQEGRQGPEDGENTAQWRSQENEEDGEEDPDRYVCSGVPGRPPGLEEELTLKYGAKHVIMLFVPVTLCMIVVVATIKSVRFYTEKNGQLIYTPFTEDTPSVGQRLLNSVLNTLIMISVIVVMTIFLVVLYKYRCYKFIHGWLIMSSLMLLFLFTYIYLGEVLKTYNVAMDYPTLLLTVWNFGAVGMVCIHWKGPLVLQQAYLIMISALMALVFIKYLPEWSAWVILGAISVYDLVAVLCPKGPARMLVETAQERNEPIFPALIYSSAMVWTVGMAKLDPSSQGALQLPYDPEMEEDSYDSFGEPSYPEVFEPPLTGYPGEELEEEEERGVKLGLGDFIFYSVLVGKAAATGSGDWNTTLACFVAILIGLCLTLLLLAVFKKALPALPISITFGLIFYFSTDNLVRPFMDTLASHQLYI
# Sequence of Presenilin-2 (Homo sapiens), P49810 R275A (P49810 whole entry R275A): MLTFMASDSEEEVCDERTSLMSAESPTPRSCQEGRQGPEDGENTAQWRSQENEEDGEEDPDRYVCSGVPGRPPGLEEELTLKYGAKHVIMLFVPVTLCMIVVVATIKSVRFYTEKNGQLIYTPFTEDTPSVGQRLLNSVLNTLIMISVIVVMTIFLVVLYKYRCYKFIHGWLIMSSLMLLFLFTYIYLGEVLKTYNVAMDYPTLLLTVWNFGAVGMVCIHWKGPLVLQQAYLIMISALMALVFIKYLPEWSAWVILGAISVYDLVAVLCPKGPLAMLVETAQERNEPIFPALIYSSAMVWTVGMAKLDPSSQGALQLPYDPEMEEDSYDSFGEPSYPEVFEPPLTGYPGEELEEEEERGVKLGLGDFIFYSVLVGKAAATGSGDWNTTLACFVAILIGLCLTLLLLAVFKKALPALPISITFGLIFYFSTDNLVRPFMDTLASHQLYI
# Sequence of Presenilin-2 (Homo sapiens), P49810 P270A (P49810 whole entry P270A): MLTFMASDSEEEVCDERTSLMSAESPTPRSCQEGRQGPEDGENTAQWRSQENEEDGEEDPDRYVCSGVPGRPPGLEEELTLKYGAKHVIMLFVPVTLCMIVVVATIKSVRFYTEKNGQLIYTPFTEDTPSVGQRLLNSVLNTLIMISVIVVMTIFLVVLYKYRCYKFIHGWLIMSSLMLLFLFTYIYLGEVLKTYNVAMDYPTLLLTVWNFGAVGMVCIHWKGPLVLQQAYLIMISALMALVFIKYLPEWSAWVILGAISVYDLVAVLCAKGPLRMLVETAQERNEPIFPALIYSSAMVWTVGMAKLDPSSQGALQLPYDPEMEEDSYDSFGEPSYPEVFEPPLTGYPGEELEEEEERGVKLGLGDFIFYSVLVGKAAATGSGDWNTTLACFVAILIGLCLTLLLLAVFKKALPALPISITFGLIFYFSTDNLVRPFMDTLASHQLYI
# Sequence of Presenilin-2 (Homo sapiens), P49810 L277A (P49810 whole entry L277A): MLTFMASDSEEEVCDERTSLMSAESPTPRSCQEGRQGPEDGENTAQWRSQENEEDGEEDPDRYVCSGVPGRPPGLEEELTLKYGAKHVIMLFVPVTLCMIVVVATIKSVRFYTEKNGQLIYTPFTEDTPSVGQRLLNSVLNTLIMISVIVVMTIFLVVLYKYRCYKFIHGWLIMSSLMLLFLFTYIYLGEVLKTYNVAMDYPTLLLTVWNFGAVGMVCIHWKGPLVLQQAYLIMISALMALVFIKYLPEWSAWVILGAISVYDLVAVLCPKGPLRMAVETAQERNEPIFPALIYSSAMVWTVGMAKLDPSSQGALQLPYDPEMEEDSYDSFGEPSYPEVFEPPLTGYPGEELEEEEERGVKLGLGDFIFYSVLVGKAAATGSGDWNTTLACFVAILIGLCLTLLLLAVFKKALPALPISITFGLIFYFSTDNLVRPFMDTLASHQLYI
# Sequence of Presenilin-2 (Homo sapiens), P49810 M276A (P49810 whole entry M276A): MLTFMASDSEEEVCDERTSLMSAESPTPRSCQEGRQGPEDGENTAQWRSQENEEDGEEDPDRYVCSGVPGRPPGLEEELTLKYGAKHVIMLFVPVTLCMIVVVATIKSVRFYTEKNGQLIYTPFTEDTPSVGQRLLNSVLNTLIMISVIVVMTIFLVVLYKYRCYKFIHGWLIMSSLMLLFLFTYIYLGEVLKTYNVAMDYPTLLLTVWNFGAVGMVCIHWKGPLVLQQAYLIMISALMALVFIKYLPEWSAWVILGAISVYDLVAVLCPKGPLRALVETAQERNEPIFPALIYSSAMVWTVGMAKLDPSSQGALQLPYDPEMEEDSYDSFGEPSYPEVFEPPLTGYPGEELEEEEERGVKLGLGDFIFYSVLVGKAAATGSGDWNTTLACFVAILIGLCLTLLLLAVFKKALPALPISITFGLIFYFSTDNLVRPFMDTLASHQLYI
row,Substance,effect of a mutation on the interaction
1,"Presenilin-2 (Homo sapiens), P49810 K271A",with no effect
2,"Presenilin-2 (Homo sapiens), P49810 P273A",decreasing interaction strength
3,"Presenilin-2 (Homo sapiens), P49810 P270A",decreasing interaction strength
4,"Presenilin-2 (Homo sapiens), P49810 L277A",decreasing interaction strength
5,"Presenilin-2 (Homo sapiens), P49810 M276A",decreasing interaction strength
6,"Presenilin-2 (Homo sapiens), P49810 R275A",disrupting interaction strength
7,"Presenilin-2 (Homo sapiens), P49810 V278A",decreasing interaction strength
8,"Presenilin-2 (Homo sapiens), P49810 L274A",decreasing interaction strength
9,"Presenilin-2 (Homo sapiens), P49810 G272A",decreasing interaction strength
10,"Presenilin-2 (Homo sapiens), P49810 E279A",decreasing interaction strength
